Laboratory results: the supplement of paper PMC9732359
± gives the uncertainty stated by the source.

Assay: protein stability index of a GFP-peptide fusion (yeast GPS) (PSI 1-4); higher = more stable; sorted into four equal gates, so the index is relative within each strain
How it was run: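 Tiled yeast protein peptides of 17 residues were each joined downstream of GFP, on plasmids that also express Cherry. The pooled library was maintained in yeast, and mid-log cultures in leucine-free medium were sorted into four equal gates on the GFP/Cherry ratio. Plasmids from every gate were amplified by PCR and sequenced on Illumina, with barcodes linking reads to strains. The protein stability index of a peptide is its gate-number-weighted read frequency summed over the gates.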

Row | Sequence | protein stability index (doa10∆) | protein stability index (pdr5∆) | protein stability index (san1∆) | protein stability index (ubr1∆)
1 | TPAAATSPIDIREKVAK [SNF2] | 2.75 ± 0.11 | 2.84 ± 0.11 | 2.63 ± 0.11 | 3.01 ± 0.1
2 | TPAFGSNNTGNTAFGNS [YJL041W/NSP1] | 2.85 ± 0.11 | 3.13 ± 0.081 | 3.28 ± 0.067 | 3.08 ± 0.049
3 | TPANTNNSTSNANTVFS [SWI1] | 2.5 ± 0.057 | 2.75 ± 0.047 | 2.66 ± 0.04 | 2.931 ± 0.028
4 | TPEMNVTNNVEEGEFII [TAF14] | – | 2.43 ± 0.26 | – | 3.62 ± 0.22
5 | TPISNEQTEGEPKKKRG [SRP68] | 3.16 ± 0.12 | 3.27 ± 0.17 | 3.27 ± 0.11 | 3.27 ± 0.068
6 | TPKVVRSQDQENPAFLP [SEC65] | 2.66 ± 0.074 | 2.57 ± 0.067 | 2.16 ± 0.063 | 2.65 ± 0.055
7 | TPNMVNSEISNLPKDKS [SSN2] | 2.74 ± 0.08 | 3.08 ± 0.17 | 2.69 ± 0.087 | 2.9 ± 0.066
8 | TPRDRRKSVFAPLNFNP [SSN2] | 2.68 ± 0.066 | 2.57 ± 0.063 | 2.95 ± 0.081 | 2.86 ± 0.045
9 | TPSSNSNSSELEPDYQA [MED1] | 2.74 ± 0.13 | 2.96 ± 0.16 | 3.35 ± 0.055 | 3.43 ± 0.1
10 | TPTDVIGVVSLTNGVTE [RRP6] | 3.21 ± 0.14 | 2.87 ± 0.07 | 3.03 ± 0.098 | 3.15 ± 0.059
11 | TPVQPDLSVTPQKSSSK [YAR002W/NUP60] | 3.15 ± 0.04 | 3.15 ± 0.04 | 3.057 ± 0.026 | 3.093 ± 0.027
12 | TQAKKLYHHTTKTILSG [SRP72] | 3.17 ± 0.069 | 2.86 ± 0.051 | 2.49 ± 0.098 | 3.26 ± 0.046
13 | TQHKVTQYKAGKASLFA [RPL42A] | 3.29 ± 0.076 | 3.04 ± 0.062 | 2.99 ± 0.059 | 2.96 ± 0.068
14 | TQLQRGGTSDMNYLLDN [CSI1] | 2.89 ± 0.097 | 2.82 ± 0.14 | 3.2 ± 0.078 | 3.02 ± 0.078
15 | TQSGGVRPFGVSTLIAG [PRE6] | 1.5 ± 0.14 | 1.72 ± 0.12 | 1.75 ± 0.17 | 1.43 ± 0.081
16 | TQTSKEQEIENNGLPMK [ITC1] | 2.9 ± 0.075 | 3.2 ± 0.12 | 2.87 ± 0.1 | 2.86 ± 0.089
17 | TREDVSPHYNSQKQTLI [SSN3] | 2.16 ± 0.05 | 2.71 ± 0.05 | 2.15 ± 0.048 | 2.81 ± 0.051
18 | TRGPFHFRAPSRILYKA [RPL16B] | 2.3 ± 0.064 | 2.43 ± 0.045 | 2.08 ± 0.068 | 2.27 ± 0.042
19 | TRINGLNSNNSIIGNKN [REC8] | 3.2 ± 0.089 | 3.04 ± 0.072 | 3.21 ± 0.048 | 2.98 ± 0.051
20 | TRLWGSVYYHKGNFRTK [SNU114] | 3.35 ± 0.064 | 3.46 ± 0.093 | 3.35 ± 0.06 | 3.32 ± 0.082

Row | Sequence | protein stability index (doa10∆) | protein stability index (pdr5∆) | protein stability index (san1∆) | protein stability index (ubr1∆)
21 | TRQFEGRSNEIVKTTTK [PRP8] | 3.14 ± 0.058 | 3.12 ± 0.07 | 2.89 ± 0.055 | 3 ± 0.044
22 | TRSAKKMVIAELLPHYP [YJR042W/NUP85] | 2.83 ± 0.089 | 2.81 ± 0.087 | 2.89 ± 0.052 | 3 ± 0.074
23 | TRSKRLSQVYPTLVRSV [CSN12] | 1.72 ± 0.12 | 2.1 ± 0.22 | – | –
24 | TRSNPPFKRKMLLVDII [REC8] | 1.9 ± 0.098 | 1.98 ± 0.087 | 2.14 ± 0.16 | 2.58 ± 0.061
25 | TRVHQLMLEDAVTEREV [MCD1] | 3.35 ± 0.22 | 2.92 ± 0.16 | 2.36 ± 0.23 | 2.89 ± 0.12
26 | TRYNRDYMLSMANIPER [SNU114] | 1.48 ± 0.073 | 2.44 ± 0.055 | 2.62 ± 0.1 | 1.43 ± 0.047
27 | TSAGIMDHEEARRKHVS [RPS22A] | 2.87 ± 0.3 | 2.73 ± 0.23 | 2.87 ± 0.24 | 2.62 ± 0.15
28 | TSCTIPKAVVDHINGSG [GAL11] | 2.23 ± 0.083 | 2.78 ± 0.077 | 1.24 ± 0.12 | 1.79 ± 0.087
29 | TSGEAAALGMGLCMLGT [RPN2] | 2.92 ± 0.19 | 2.95 ± 0.21 | 3.08 ± 0.12 | 2.68 ± 0.1
30 | TSIHSTISILAAPSGNY [RRP43] | 1.59 ± 0.038 | 1.85 ± 0.033 | 1.97 ± 0.05 | 1.67 ± 0.029
31 | TSLLNKVLKSGSGVDSS [RRP42] | 2.87 ± 0.12 | 2.88 ± 0.077 | 2.6 ± 0.13 | 3.21 ± 0.12
32 | TSLLYLSTLEPSTSITL [RPN9] | 2.36 ± 0.059 | 1.89 ± 0.049 | 1.91 ± 0.089 | 2.13 ± 0.045
33 | TSRVFAKIISKAPEQFI [YML103C/NUP188] | – | 3.08 ± 0.14 | – | –
34 | TSSKSSSLSAIIVFGYP [YDL088C/ASM4] | 2.31 ± 0.055 | 2.06 ± 0.048 | 2.71 ± 0.072 | 2.58 ± 0.05
35 | TSSNIVLETHESGIKPY [RPT6] | 2.55 ± 0.097 | 2.76 ± 0.061 | 2.68 ± 0.099 | 2.47 ± 0.061
36 | TSSQKEPFFLVTKITDM [SRB8] | 2.36 ± 0.059 | 2.72 ± 0.071 | 2.52 ± 0.054 | 2.62 ± 0.054
37 | TTAEPKAKRAKTGSAST [TAF14] | 3.2 ± 0.077 | 3.14 ± 0.093 | 3.34 ± 0.053 | 3.29 ± 0.053
38 | TTDDEEEPIKKLCYVLG [RET1] | 3.42 ± 0.27 | 3.29 ± 0.18 | – | 3.46 ± 0.17
39 | TTESSDLKEGLQDLSRY [GRR1] | 3.24 ± 0.12 | 3.33 ± 0.11 | 3.33 ± 0.052 | 3.55 ± 0.045
40 | TTKLAFLVEYEGQENNY [SIR4] | 2.87 ± 0.085 | 2.85 ± 0.068 | 2.4 ± 0.1 | 3.19 ± 0.052
